B1: Mannose-1-phosphate guanylyltransferase regulatory subunit alpha (Homo sapiens), Q96IJ6-1 (parent)
chain: MLKAVILIGGPQKGTRFRPLSFEVPKPLFPVAGVPMIQHHIEACAQVPGMQEILLIGFYQPDEPLTQFLEAAQQEFNLPVRYLQEFAPLGTGGGLYHFRDQILAGSPEAFFVLNADVCSDFPLSAMLEAHRRQRHPFLLLGTTANRTQSLNYGCIVENPQTHEVLHYVEKPSTFISDIINCGIYLFSPEALKPLRDVFQRNQQDGQLEDSPGLWPGAGTIRLEQDVFSALAGQGQIYVHLTDGIWSQIKSAGSALYASRLYLSRYQDTHPERLAKHTPGGPWIRGNVYIHPTAKVAPSAVLGPNVSIGKGVTVGEGVRLRESIVLHGATLQEHTCVLHSIVGWGSTVGRWARVEGTPSDPNPNDPRARMDSESLFKDGKLLPAITILGCRVRIPAEVLILNSIVLPHKELSRSFTNQIIL

Variants of: B1
Details: with GMPPB

| effect of a mutation on the interaction | Variant |
| --- | --- |
| with no effect | E396R |
| with no effect | E85K;Q247A |
| disrupting interaction | R318E |
| disrupting interaction | W350A;R352A |

Source: IntAct's records for PubMed 33986552
